According to publication PMC10427645, “Extracellular Pgk1 interacts neural membrane protein enolase-2 to improve the neurite outgrowth of motor neurons” (Communications Biology, 2023):

Molecular target: T1, Eno2-Myc (mouse Enolase-2 fused with Myc) (mouse, UniProt P17183 1-434)
T1 construct: Pgk1-Flag was added to the medium of Sf21 cells expressing this protein, followed by BS3 cross-linking; source: Sf21 insect cells (Baculovirus, pVL-Eno2-Myc), expressed on or in the cells, not purified
Test: cross-linking + co-IP; cell surface crosslinking-IP: Sf21 cells expressing the Myc-tagged protein incubated 2 h with recombinant Flag-tagged Pgk1 or fragment in the medium, BS3 cross-linking, lysates immunoprecipitated with anti-Flag or anti-Myc beads, western blot with anti-Flag and anti-Myc
Settings: one partner purified

T1 sequence (P17183 whole entry, the tested form may be a part): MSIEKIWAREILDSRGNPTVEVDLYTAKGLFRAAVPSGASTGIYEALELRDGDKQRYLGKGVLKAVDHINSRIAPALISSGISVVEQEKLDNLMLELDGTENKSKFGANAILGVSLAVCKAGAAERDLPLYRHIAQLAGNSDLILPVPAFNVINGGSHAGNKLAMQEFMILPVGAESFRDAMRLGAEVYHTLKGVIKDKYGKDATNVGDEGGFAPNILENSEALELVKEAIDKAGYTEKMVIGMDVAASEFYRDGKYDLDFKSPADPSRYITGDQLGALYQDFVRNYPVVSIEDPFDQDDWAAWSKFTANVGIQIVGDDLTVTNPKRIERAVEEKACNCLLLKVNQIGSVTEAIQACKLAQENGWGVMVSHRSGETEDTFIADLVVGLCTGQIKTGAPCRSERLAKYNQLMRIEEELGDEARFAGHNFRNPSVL

B1: recombinant mouse Pgk1 fused with Flag (Pgk1-Flag) (natural protein, UniProt P09411 1-417, looked up)
chain: MSLSNKLTLDKLDVKGKRVVMRVDFNVPMKNNQITNNQRIKAAVPSIKFCLDNGAKSVVLMSHLGRPDGVPMPDKYSLEPVAAELKSLLGKDVLFLKDCVGPEVENACANPAAGTVILLENLRFHVEEEGKGKDASGNKVKAEPAKIDAFRASLSKLGDVYVNDAFGTAHRAHSSMVGVNLPQKAGGFLMKKELNYFAKALESPERPFLAILGGAKVADKIQLINNMLDKVNEMIIGGGMAFTFLKVLNNMEIGTSLYDEEGAKIVKDLMSKAEKNGVKITLPVDFVTADKFDENAKTGQATVASGIPAGWMGLDCGTESSKKYAEAVGRAKQIVWNGPVGVFEWEAFARGTKSLMDEVVKATSRGCITIIGGGDTATCCAKWNTEDKVSHVSTGGGASLELLEGKVLPGVDALSNV
notes: phosphoglycerate kinase 1 (Pgk1), mouse, full-length coding region (1-417), cDNA cloned from NSC34 and C2C12 cells; also called extracellular Pgk1; phosphoglycerate kinase 1; source: Sf21 insect cells (Baculovirus expression system), purified (anti-Flag beads, eluted with 3x Flag peptide)
  fold, intensity ratio of Flag relative to Myc in the Eno2-Myc plus Pgk1-Flag group against the Eno2-Myc group (set as 1): 8 fold
  fold, intensity ratio of Myc relative to Flag in the Pgk1-Flag plus Eno2-Myc group against the Pgk1-Flag group (set as 1): 14 fold
